Data published in patent US8754043B2, “Epidermal growth factor compositions” (Bharat Biotech International Limited, priority 2005, dated 2014).

Columns and labels:
[1] = system: rats; assay: Pre-clinical safety studies (acute 8 days, sub-acute 30 days) in rats; format: in vivo
Description: (§1) Various combinations of EGF were thus carried out and the combinations were subjected to thermal stability as per ICH guidelines. Pre-clinical studies for safety of the formulations with varying percentages of EGF, were conducted in both rats and rabbits, as per the approved guidelines. Briefly, acute toxicity studies were carried out for 8 days, sub-acute studies were carried on for 30 days and ocular irritation study was conducted for 7 days.

[2] = system: rabbits; assay: Pre-clinical safety studies (acute 8 days, sub-acute 30 days) in rabbits; format: in vivo
Description: as §1

CC[C@H](C)[C@@H]1NC(=O)[C@H](Cc2ccc(O)cc2)NC(=O)CNC(=O)[C@H](C(C)C)NC(=O)[C@H](C(C)C)NC(=O)[C@@H](NC(=O)[C@H](CC(N)=O)NC(=O)[C@@H]2CSSC[C@@H]3NC(=O)[C@H](Cc4ccc(O)cc4)NC(=O)CNC(=O)[C@H](CC(=O)O)NC(=O)[C@H](Cc4c[nH]cn4)NC(=O)[C@H](CO)NC(=O)[C@H](CC(C)C)NC(=O)[C@@H]4CCCN4C(=O)[C@@H](NC(=O)[C@H](CCC(=O)O)NC(=O)[C@H](CO)NC(=O)[C@H](CC(=O)O)NC(=O)[C@H](CO)NC(=O)[C@@H](N)CC(N)=O)CSSC[C@H](NC(=O)[C@H](C(C)C)NC(=O)CNC(=O)[C@H](CC(=O)O)NC(=O)[C@H](Cc4c[nH]cn4)NC(=O)[C@H](CC(C)C)NC3=O)C(=O)N[C@@H](CCSC)C(=O)N[C@@H](Cc3ccc(O)cc3)C(=O)N[C@@H]([C@@H](C)CC)C(=O)N[C@@H](CCC(=O)O)C(=O)N[C@@H](C)C(=O)N[C@@H](CC(C)C)C(=O)N[C@@H](CC(=O)O)C(=O)N[C@@H](CCCCN)C(=O)N[C@@H](Cc3ccc(O)cc3)C(=O)N[C@@H](C)C(=O)N2)CSSC[C@@H](C(=O)N[C@@H](CCC(N)=O)C(=O)N[C@@H](Cc2ccc(O)cc2)C(=O)N[C@@H](CCCNC(=N)N)C(=O)N[C@@H](CC(=O)O)C(=O)N[C@@H](CC(C)C)C(=O)N[C@@H](CCCCN)C(=O)N[C@@H](Cc2c[nH]c3ccccc23)C(=O)N[C@@H](Cc2c[nH]c3ccccc23)C(=O)N[C@@H](CCC(=O)O)C(=O)N[C@@H](CC(C)C)C(=O)N[C@@H](CCCNC(=N)N)C(=O)O)NC(=O)[C@H](CCCNC(=N)N)NC(=O)[C@H](CCC(=O)O)NC(=O)CNC1=O [EGF, Epidermal Growth Factor]
biochemical parameters ([1]; control vs treated): within the normal range and no abnormality was observed | growth rate and food consumption ([1]; control vs treated): normal & did not differ significantly | hematological parameters ([1]; control vs treated): no observable changes | anti-body response ([1]; treated groups): no observable anti-body response | biochemical parameters ([2]; control vs treated): within the normal range and no abnormality was observed | growth rate and food consumption ([2]; control vs treated): normal & did not differ significantly | hematological parameters ([2]; control vs treated): no observable changes | anti-body response ([2]; treated groups): no observable anti-body response
